This is an account of results in patent publication US5612455, “Nuclear factors and binding assay” (Tularik, Inc.).

Series [1] deals with T1, NFAT3 full length (Homo sapiens) (UniProt Q14934).
T1 sequence: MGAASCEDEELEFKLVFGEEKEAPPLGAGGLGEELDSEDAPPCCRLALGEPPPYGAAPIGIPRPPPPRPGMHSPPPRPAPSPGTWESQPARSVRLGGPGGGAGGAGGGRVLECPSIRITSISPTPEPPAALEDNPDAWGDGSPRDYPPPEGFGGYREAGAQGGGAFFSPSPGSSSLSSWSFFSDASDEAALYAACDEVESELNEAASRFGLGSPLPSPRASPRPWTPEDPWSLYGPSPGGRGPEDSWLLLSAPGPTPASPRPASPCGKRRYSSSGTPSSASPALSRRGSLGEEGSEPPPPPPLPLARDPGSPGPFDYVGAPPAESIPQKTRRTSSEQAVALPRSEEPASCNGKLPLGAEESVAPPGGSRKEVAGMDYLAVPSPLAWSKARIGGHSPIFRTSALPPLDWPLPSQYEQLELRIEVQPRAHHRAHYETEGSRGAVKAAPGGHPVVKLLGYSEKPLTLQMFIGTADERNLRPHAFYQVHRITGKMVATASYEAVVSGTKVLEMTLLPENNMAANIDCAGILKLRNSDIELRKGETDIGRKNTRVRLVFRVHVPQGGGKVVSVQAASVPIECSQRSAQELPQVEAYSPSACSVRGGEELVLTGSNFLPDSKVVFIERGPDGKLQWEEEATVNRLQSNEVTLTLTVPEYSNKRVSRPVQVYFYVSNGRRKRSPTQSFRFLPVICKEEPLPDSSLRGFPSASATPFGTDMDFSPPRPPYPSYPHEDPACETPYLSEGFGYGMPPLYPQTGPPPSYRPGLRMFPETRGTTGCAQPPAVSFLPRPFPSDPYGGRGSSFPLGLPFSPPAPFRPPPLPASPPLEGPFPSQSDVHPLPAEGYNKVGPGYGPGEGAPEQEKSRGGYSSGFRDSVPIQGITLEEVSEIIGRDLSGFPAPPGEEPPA
The experiment in a line: cell_activity. The settings on record: HepG2 cells; COS cells 50-fold independent of PMA and ionomycin.

In series [2] the target is NFATp rel domain + c-Jun/Fra-1 (Homo sapiens, UniProt Q13469;P05412;P15407 Q13469:392-744,P05412:1-331,P15407:1-271). The experiment in a line: EMSA; highly cooperative; similar affinity for all four NFATs; jun homodimers less effective; exact EMSA probe not stated. The note with it: tags: NFATp HMK site. For orientation: In EMSA bound probe runs differently from free probe, usually more slowly.
Chain of NFATp rel domain + c-Jun/Fra-1 (Q13469 392-744, chain 1 of 3): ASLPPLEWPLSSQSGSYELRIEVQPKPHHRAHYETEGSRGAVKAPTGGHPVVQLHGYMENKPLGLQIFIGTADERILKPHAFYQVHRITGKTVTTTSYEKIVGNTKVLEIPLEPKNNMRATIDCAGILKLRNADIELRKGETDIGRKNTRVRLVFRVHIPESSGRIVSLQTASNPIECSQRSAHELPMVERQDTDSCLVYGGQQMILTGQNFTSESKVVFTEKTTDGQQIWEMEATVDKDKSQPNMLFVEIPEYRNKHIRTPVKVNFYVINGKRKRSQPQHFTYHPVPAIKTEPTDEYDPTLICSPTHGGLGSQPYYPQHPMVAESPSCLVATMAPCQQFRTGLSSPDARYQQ
Chain of NFATp rel domain + c-Jun/Fra-1 (P05412 whole entry, chain 2 of 3, the tested form may be a part): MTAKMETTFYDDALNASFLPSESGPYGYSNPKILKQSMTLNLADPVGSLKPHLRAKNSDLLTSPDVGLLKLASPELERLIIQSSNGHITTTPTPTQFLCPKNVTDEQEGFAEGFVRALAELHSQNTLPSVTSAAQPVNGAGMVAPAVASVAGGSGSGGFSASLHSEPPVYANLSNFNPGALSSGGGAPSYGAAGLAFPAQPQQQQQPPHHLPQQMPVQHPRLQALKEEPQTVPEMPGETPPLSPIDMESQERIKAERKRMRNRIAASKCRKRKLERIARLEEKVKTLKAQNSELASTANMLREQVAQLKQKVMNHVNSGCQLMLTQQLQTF
Chain of NFATp rel domain + c-Jun/Fra-1 (P15407 whole entry, chain 3 of 3, the tested form may be a part): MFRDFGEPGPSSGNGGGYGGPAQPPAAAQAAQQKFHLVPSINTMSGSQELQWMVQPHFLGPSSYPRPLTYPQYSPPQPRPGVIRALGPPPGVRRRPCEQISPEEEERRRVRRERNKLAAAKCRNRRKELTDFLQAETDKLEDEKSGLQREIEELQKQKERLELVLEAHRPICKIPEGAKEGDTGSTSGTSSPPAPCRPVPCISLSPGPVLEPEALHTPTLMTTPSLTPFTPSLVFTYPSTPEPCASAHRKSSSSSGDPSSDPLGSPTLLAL

Series [3] concerns the target NFATc rel domain + c-Jun/Fra-1 (Homo sapiens, UniProt O95644-2;P05412;P15407 O95644-2:408-716,P05412:1-331,P15407:1-271). The series can be described thus: EMSA; highly cooperative; jun homodimers less effective; exact EMSA probe not stated. The note with it: tags: NFATc HMK site.
Series [4] has as its target NFAT3 rel domain + c-Jun/Fra-1 (Homo sapiens, UniProt Q14934;P05412;P15407 Q14934:400-744,P05412:1-331,P15407:1-271). The description is as above. The settings on record: tags: NFAT3 HMK site.
Series [5] deals with NFAT4 rel domain + c-Jun/Fra-1 (Homo sapiens, UniProt Q12968;P05412;P15407 Q12968:393-708,P05412:1-331,P15407:1-271). The series can be described thus: EMSA; highly cooperative; NFAT4 alone does not bind; jun homodimers less effective; exact EMSA probe not stated. The settings on record: tags: NFAT4 HMK site.
Chain of NFAT4 rel domain + c-Jun/Fra-1 (P05412 whole entry, chain 2 of 2, the tested form may be a part): as the sequence (P05412 whole entry, chain 2 of 3, the tested form may be a part) above
Chain of NFAT4 rel domain + c-Jun/Fra-1 (P15407 whole entry, chain 3 of 2, the tested form may be a part): as the sequence (P15407 whole entry, chain 3 of 3, the tested form may be a part) above
Series [6] concerns the target T2, NFAT4 rel domain (Homo sapiens, UniProt Q12968 SEQ:393-708).
T2 sequence: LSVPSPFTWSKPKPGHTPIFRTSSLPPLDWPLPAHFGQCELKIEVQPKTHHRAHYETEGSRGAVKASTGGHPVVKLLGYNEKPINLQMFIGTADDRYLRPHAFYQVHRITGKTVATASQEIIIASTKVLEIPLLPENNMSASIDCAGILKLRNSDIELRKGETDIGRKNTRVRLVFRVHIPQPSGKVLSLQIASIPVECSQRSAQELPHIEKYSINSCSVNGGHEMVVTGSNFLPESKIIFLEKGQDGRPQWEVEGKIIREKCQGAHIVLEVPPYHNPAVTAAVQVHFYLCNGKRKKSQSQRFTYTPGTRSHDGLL
The series can be described thus: EMSA; binding not detectable; core only printed. The note with it: tags: N-terminal 8 aa heart muscle kinase site (pT7-HMK), E. coli.

Series [7] addresses T2, NFAT4 rel domain. The experiment in a line: EMSA; probe length not stated, core SEQ 15; also purified on SEQ 17 resin. The note with it: tags: N-terminal 8 aa heart muscle kinase site (pT7-HMK), E. coli.
Series [8] concerns the target T3, NFATp rel domain (353 aa, homologous to murine NFATp 185-537) (Homo sapiens, UniProt Q13469 SEQ:390-742).
T3 sequence: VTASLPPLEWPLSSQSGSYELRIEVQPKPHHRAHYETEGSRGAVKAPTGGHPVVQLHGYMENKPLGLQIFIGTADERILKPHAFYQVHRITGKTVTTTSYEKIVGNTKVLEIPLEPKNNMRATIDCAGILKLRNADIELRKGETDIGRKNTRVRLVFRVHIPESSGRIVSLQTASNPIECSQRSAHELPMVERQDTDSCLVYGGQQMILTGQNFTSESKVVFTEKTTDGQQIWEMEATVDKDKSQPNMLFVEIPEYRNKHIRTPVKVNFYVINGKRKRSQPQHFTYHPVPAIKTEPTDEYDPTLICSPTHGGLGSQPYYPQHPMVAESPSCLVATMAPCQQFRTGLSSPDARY
The series can be described thus: EMSA; probe length not stated, core SEQ 15; affinity similar to NFATc and NFAT3; 50 mM KCl, RT; also purified on SEQ 17 affinity resin. The note with it: tags: N-terminal 8 aa heart muscle kinase site (pT7-HMK), E. coli.

The target of series [9] is T4, NFATc rel domain (NFATc-309) (Homo sapiens, UniProt O95644 SEQ:408-716).
T4 sequence: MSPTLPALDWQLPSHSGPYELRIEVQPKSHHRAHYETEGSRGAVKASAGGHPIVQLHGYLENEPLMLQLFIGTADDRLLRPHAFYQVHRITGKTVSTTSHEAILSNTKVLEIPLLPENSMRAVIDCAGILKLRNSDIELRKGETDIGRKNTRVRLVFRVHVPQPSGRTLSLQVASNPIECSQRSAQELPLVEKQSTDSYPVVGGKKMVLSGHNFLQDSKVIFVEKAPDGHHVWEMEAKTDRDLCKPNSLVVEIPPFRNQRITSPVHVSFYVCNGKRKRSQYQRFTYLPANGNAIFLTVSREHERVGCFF
The series can be described thus: EMSA; probe length not stated, core SEQ 15; affinity similar to NFATp and NFAT3; also purified on SEQ 17 resin. The settings on record: tags: N-terminal 8 aa heart muscle kinase site (pT7-HMK), E. coli.

Another series addresses T5, NFAT3 rel domain (Homo sapiens, UniProt Q14934 SEQ:400-744).
T5 sequence: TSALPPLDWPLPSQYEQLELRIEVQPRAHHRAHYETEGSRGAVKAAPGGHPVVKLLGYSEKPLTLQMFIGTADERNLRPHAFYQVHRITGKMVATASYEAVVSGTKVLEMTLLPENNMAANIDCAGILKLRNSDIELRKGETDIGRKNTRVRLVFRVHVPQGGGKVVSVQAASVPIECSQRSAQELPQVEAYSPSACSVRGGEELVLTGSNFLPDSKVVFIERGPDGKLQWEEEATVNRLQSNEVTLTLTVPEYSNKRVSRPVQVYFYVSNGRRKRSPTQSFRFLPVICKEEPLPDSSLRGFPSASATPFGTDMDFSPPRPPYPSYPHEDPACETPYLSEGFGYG
The series can be described thus: EMSA; probe length not stated, core SEQ 15; affinity similar to NFATp and NFATc; also purified on SEQ 17 resin. The note with it: tags: N-terminal 8 aa heart muscle kinase site (pT7-HMK), E. coli.

Chain of NFAT3 rel domain + c-Jun/Fra-1 (P05412 whole entry, chain 2 of 2, the tested form may be a part): as the sequence (P05412 whole entry, chain 2 of 3, the tested form may be a part) above
Chain of NFAT3 rel domain + c-Jun/Fra-1 (P15407 whole entry, chain 3 of 2, the tested form may be a part): as the sequence (P15407 whole entry, chain 3 of 3, the tested form may be a part) above
Chain of NFATc rel domain + c-Jun/Fra-1 (P05412 whole entry, chain 2 of 2, the tested form may be a part): as the sequence (P05412 whole entry, chain 2 of 3, the tested form may be a part) above
Chain of NFATc rel domain + c-Jun/Fra-1 (P15407 whole entry, chain 3 of 2, the tested form may be a part): as the sequence (P15407 whole entry, chain 3 of 3, the tested form may be a part) above

As to “3x antigen response element (-286 to -257) tk reporter”, the activity (fold activation) in series [1] was 140.

B1: IL-2 NFAT/AP-1 composite element (dsDNA)
DNA 1: GGAGGAAAAACTGTTTCATACAGAAGGCGT
DNA 2: ACGCCTTCTGTATGAAACAGTTTTTCCTCC
As to B1, the binding result in [2], in [3], in series [4] and in [5] was “binds” each time.

B2: IL-2 promoter NFAT site (distal antigen response element) (dsDNA)
DNA 1: GGAAAAACTG
DNA 2: CAGTTTTTCC
Take B2: in the series with NFAT4 rel domain [6], the binding result was “no binding”.

B3: IL-4 promoter NFAT site (dsDNA)
DNA 1: TACATTGGAAAATTTTATTACAC
DNA 2: GTGTAATAAAATTTTCCAATGTA
Turning to B3, the binding signal in the series with NFAT4 rel domain [7] is > 10 fold lower affinity than NFATp, NFATc, NFAT3. Also, the binding result (in [8]; in [9]; with NFAT3 rel domain) was “binds” each time.
